Laboratory results taken from patent publication US20200199241A1 (Chugai, published 2020).

T1: human FcγRIIa(R) (human, UniProt P12318 36-217)
T1 construct: also called FcgRIIaR; hFcgRIIa(R)
T1 chain: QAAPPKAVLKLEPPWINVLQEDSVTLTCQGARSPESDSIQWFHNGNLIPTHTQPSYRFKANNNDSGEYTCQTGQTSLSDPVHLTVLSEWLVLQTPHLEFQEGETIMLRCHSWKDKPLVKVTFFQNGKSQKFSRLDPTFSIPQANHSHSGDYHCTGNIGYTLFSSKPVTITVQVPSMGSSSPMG

T2: human FcγRIIb (human, UniProt P31994 43-217, limits assumed)
T2 construct: also called FcgRIIb; hFcgRIIb
T2 sequence: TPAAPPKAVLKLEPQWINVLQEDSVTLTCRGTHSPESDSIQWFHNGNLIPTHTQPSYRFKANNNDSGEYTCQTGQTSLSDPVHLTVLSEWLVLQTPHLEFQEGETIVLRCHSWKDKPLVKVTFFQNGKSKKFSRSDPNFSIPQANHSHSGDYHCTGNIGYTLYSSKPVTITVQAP

T3: human FcγRIIa(H) (human, UniProt P12318 36-217)
T3 construct: also called FcgRIIaH; hFcgRIIa(H)
T3 sequence: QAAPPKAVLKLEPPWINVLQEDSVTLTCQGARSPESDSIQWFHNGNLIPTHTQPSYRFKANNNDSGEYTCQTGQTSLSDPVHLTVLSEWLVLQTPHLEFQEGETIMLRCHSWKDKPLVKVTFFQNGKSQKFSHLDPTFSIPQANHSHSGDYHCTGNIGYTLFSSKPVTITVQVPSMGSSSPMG


Key:
Assay in all cases: SPR, captured antibody;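 further: antibody captured on a sensor chip, Fcγ receptor flowed over at 25 °C, receptor binding normalized to the captured antibody amount and expressed relative to the reference antibody ×100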
human FcγRIIa(R) = target: T1, human FcγRIIa(R)
human FcγRIa = target: T4, human FcγRIa (human, UniProt P12314 16-292, limits assumed)
T4 construct: also called FcgRIa; hFcgRIa
T4 sequence (P12314 16-292 limits assumed): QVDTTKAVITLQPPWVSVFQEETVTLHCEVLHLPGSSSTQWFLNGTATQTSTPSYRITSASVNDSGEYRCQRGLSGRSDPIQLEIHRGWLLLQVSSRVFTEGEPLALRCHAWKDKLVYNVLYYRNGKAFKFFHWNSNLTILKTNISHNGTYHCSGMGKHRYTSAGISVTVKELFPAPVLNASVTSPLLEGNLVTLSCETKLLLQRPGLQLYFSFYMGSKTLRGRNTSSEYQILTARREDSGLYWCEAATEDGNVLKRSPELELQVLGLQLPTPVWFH

human FcγRIIb = target: T2, human FcγRIIb
human FcγRIIa(H) = target: T3, human FcγRIIa(H)

Row | Binder | relative binding activity (human FcγRIIa(R)) | relative binding activity (human FcγRIa) | relative binding activity (human FcγRIIb) | relative binding activity (human FcγRIIa(H))
1 | GpH7-B3 D270F/GpL16-k0 (antibody, human IgG1, B3 variant; copies: 2 + 2) heavy: not shown light: DIVMTQSPLSLPVTPGEPASISCQASESLVHSNRNTYLHWYLQKPGQSPQLLIYKVSNRFSGVPDRFSGSGSGTDFTLKISRVEAEDVGVYYCSQNTHVPPTFGQGTKVEIE | 5 % of GpH7-B3/GpL16-k0 | 88 % of GpH7-B3/GpL16-k0 | 5 % of GpH7-B3/GpL16-k0 | 62 % of GpH7-B3/GpL16-k0
2 | GpH7-B3 D270H/GpL16-k0 (antibody, human IgG1, B3 variant; copies: 2 + 2) heavy: not shown light: DIVMTQSPLSLPVTPGEPASISCQASESLVHSNRNTYLHWYLQKPGQSPQLLIYKVSNRFSGVPDRFSGSGSGTDFTLKISRVEAEDVGVYYCSQNTHVPPTFGQGTKVEIE | 0 % of GpH7-B3/GpL16-k0 | 70 % of GpH7-B3/GpL16-k0 | -2 % of GpH7-B3/GpL16-k0 | 53 % of GpH7-B3/GpL16-k0
3 | GpH7-B3 D270Y/GpL16-k0 (antibody, human IgG1, B3 variant; copies: 2 + 2) heavy: not shown light: DIVMTQSPLSLPVTPGEPASISCQASESLVHSNRNTYLHWYLQKPGQSPQLLIYKVSNRFSGVPDRFSGSGSGTDFTLKISRVEAEDVGVYYCSQNTHVPPTFGQGTKVEIE | -2 % of GpH7-B3/GpL16-k0 | 78 % of GpH7-B3/GpL16-k0 | -2 % of GpH7-B3/GpL16-k0 | 53 % of GpH7-B3/GpL16-k0
4 | GpH7-B3 L328K/GpL16-k0 (antibody, human IgG1, B3 variant; copies: 2 + 2) heavy: not shown light: DIVMTQSPLSLPVTPGEPASISCQASESLVHSNRNTYLHWYLQKPGQSPQLLIYKVSNRFSGVPDRFSGSGSGTDFTLKISRVEAEDVGVYYCSQNTHVPPTFGQGTKVEIE | -17 % of GpH7-B3/GpL16-k0 | 30 % of GpH7-B3/GpL16-k0 | -4 % of GpH7-B3/GpL16-k0 | -2 % of GpH7-B3/GpL16-k0
5 | GpH7-B3 D270I/GpL16-k0 (antibody, human IgG1, B3 variant; copies: 2 + 2) heavy: not shown light: DIVMTQSPLSLPVTPGEPASISCQASESLVHSNRNTYLHWYLQKPGQSPQLLIYKVSNRFSGVPDRFSGSGSGTDFTLKISRVEAEDVGVYYCSQNTHVPPTFGQGTKVEIE | 3 % of GpH7-B3/GpL16-k0 | 88 % of GpH7-B3/GpL16-k0 | 1 % of GpH7-B3/GpL16-k0 | 43 % of GpH7-B3/GpL16-k0
6 | GpH7-B3 D270M/GpL16-k0 (antibody, human IgG1, B3 variant; copies: 2 + 2) heavy: not shown light: DIVMTQSPLSLPVTPGEPASISCQASESLVHSNRNTYLHWYLQKPGQSPQLLIYKVSNRFSGVPDRFSGSGSGTDFTLKISRVEAEDVGVYYCSQNTHVPPTFGQGTKVEIE | 7 % of GpH7-B3/GpL16-k0 | 90 % of GpH7-B3/GpL16-k0 | 6 % of GpH7-B3/GpL16-k0 | 57 % of GpH7-B3/GpL16-k0
7 | GpH7-B3 I332P/GpL16-k0 (antibody, human IgG1, B3 variant; copies: 2 + 2) heavy: not shown light: DIVMTQSPLSLPVTPGEPASISCQASESLVHSNRNTYLHWYLQKPGQSPQLLIYKVSNRFSGVPDRFSGSGSGTDFTLKISRVEAEDVGVYYCSQNTHVPPTFGQGTKVEIE | 34 % of GpH7-B3/GpL16-k0 | 100 % of GpH7-B3/GpL16-k0 | 41 % of GpH7-B3/GpL16-k0 | 26 % of GpH7-B3/GpL16-k0
8 | GpH7-B3 L328H/GpL16-k0 (antibody, human IgG1, B3 variant; copies: 2 + 2) heavy: not shown light: DIVMTQSPLSLPVTPGEPASISCQASESLVHSNRNTYLHWYLQKPGQSPQLLIYKVSNRFSGVPDRFSGSGSGTDFTLKISRVEAEDVGVYYCSQNTHVPPTFGQGTKVEIE | 76 % of GpH7-B3/GpL16-k0 | 95 % of GpH7-B3/GpL16-k0 | 82 % of GpH7-B3/GpL16-k0 | 47 % of GpH7-B3/GpL16-k0
9 | GpH7-B3 D270L/GpL16-k0 (antibody, human IgG1, B3 variant; copies: 2 + 2) heavy: not shown light: DIVMTQSPLSLPVTPGEPASISCQASESLVHSNRNTYLHWYLQKPGQSPQLLIYKVSNRFSGVPDRFSGSGSGTDFTLKISRVEAEDVGVYYCSQNTHVPPTFGQGTKVEIE | 6 % of GpH7-B3/GpL16-k0 | 90 % of GpH7-B3/GpL16-k0 | 3 % of GpH7-B3/GpL16-k0 | 61 % of GpH7-B3/GpL16-k0
10 | GpH7-B3 D270S/GpL16-k0 (antibody, human IgG1, B3 variant; copies: 2 + 2) heavy: not shown light: DIVMTQSPLSLPVTPGEPASISCQASESLVHSNRNTYLHWYLQKPGQSPQLLIYKVSNRFSGVPDRFSGSGSGTDFTLKISRVEAEDVGVYYCSQNTHVPPTFGQGTKVEIE | 0 % of GpH7-B3/GpL16-k0 | 73 % of GpH7-B3/GpL16-k0 | -1 % of GpH7-B3/GpL16-k0 | 49 % of GpH7-B3/GpL16-k0
11 | GpH7-B3 D270N/GpL16-k0 (antibody, human IgG1, B3 variant; copies: 2 + 2) heavy: not shown light: DIVMTQSPLSLPVTPGEPASISCQASESLVHSNRNTYLHWYLQKPGQSPQLLIYKVSNRFSGVPDRFSGSGSGTDFTLKISRVEAEDVGVYYCSQNTHVPPTFGQGTKVEIE | -1 % of GpH7-B3/GpL16-k0 | 68 % of GpH7-B3/GpL16-k0 | -2 % of GpH7-B3/GpL16-k0 | 34 % of GpH7-B3/GpL16-k0
12 | GpH7-B3 L328G/GpL16-k0 (antibody, human IgG1, B3 variant; copies: 2 + 2) heavy: not shown light: DIVMTQSPLSLPVTPGEPASISCQASESLVHSNRNTYLHWYLQKPGQSPQLLIYKVSNRFSGVPDRFSGSGSGTDFTLKISRVEAEDVGVYYCSQNTHVPPTFGQGTKVEIE | 66 % of GpH7-B3/GpL16-k0 | 92 % of GpH7-B3/GpL16-k0 | 62 % of GpH7-B3/GpL16-k0 | 52 % of GpH7-B3/GpL16-k0
13 | GpH7-B3 L328N/GpL16-k0 (antibody, human IgG1, B3 variant; copies: 2 + 2) heavy: not shown light: DIVMTQSPLSLPVTPGEPASISCQASESLVHSNRNTYLHWYLQKPGQSPQLLIYKVSNRFSGVPDRFSGSGSGTDFTLKISRVEAEDVGVYYCSQNTHVPPTFGQGTKVEIE | 25 % of GpH7-B3/GpL16-k0 | 98 % of GpH7-B3/GpL16-k0 | 78 % of GpH7-B3/GpL16-k0 | 34 % of GpH7-B3/GpL16-k0
14 | GpH7-B3 L328P/GpL16-k0 (antibody, human IgG1, B3 variant; copies: 2 + 2) heavy: not shown light: DIVMTQSPLSLPVTPGEPASISCQASESLVHSNRNTYLHWYLQKPGQSPQLLIYKVSNRFSGVPDRFSGSGSGTDFTLKISRVEAEDVGVYYCSQNTHVPPTFGQGTKVEIE | 15 % of GpH7-B3/GpL16-k0 | 78 % of GpH7-B3/GpL16-k0 | 15 % of GpH7-B3/GpL16-k0 | 8 % of GpH7-B3/GpL16-k0
15 | GpH7-B3 I332K/GpL16-k0 (antibody, human IgG1, B3 variant; copies: 2 + 2) heavy: not shown light: DIVMTQSPLSLPVTPGEPASISCQASESLVHSNRNTYLHWYLQKPGQSPQLLIYKVSNRFSGVPDRFSGSGSGTDFTLKISRVEAEDVGVYYCSQNTHVPPTFGQGTKVEIE | 12 % of GpH7-B3/GpL16-k0 | 77 % of GpH7-B3/GpL16-k0 | 27 % of GpH7-B3/GpL16-k0 | 59 % of GpH7-B3/GpL16-k0
16 | GpH7-B3 L328R/GpL16-k0 (antibody, human IgG1, B3 variant; copies: 2 + 2) heavy: not shown light: DIVMTQSPLSLPVTPGEPASISCQASESLVHSNRNTYLHWYLQKPGQSPQLLIYKVSNRFSGVPDRFSGSGSGTDFTLKISRVEAEDVGVYYCSQNTHVPPTFGQGTKVEIE | -13 % of GpH7-B3/GpL16-k0 | 26 % of GpH7-B3/GpL16-k0 | -3 % of GpH7-B3/GpL16-k0 | -1 % of GpH7-B3/GpL16-k0
17 | GpH7-B3 D270T/GpL16-k0 (antibody, human IgG1, B3 variant; copies: 2 + 2) heavy: not shown light: DIVMTQSPLSLPVTPGEPASISCQASESLVHSNRNTYLHWYLQKPGQSPQLLIYKVSNRFSGVPDRFSGSGSGTDFTLKISRVEAEDVGVYYCSQNTHVPPTFGQGTKVEIE | 1 % of GpH7-B3/GpL16-k0 | 81 % of GpH7-B3/GpL16-k0 | -2 % of GpH7-B3/GpL16-k0 | 38 % of GpH7-B3/GpL16-k0
18 | GpH7-B3 D270V/GpL16-k0 (antibody, human IgG1, B3 variant; copies: 2 + 2) heavy: not shown light: DIVMTQSPLSLPVTPGEPASISCQASESLVHSNRNTYLHWYLQKPGQSPQLLIYKVSNRFSGVPDRFSGSGSGTDFTLKISRVEAEDVGVYYCSQNTHVPPTFGQGTKVEIE | 1 % of GpH7-B3/GpL16-k0 | 84 % of GpH7-B3/GpL16-k0 | 3 % of GpH7-B3/GpL16-k0 | 37 % of GpH7-B3/GpL16-k0
19 | GpH7-B3 D270Q/GpL16-k0 (antibody, human IgG1, B3 variant; copies: 2 + 2) heavy: not shown light: DIVMTQSPLSLPVTPGEPASISCQASESLVHSNRNTYLHWYLQKPGQSPQLLIYKVSNRFSGVPDRFSGSGSGTDFTLKISRVEAEDVGVYYCSQNTHVPPTFGQGTKVEIE | 2 % of GpH7-B3/GpL16-k0 | 82 % of GpH7-B3/GpL16-k0 | 0 % of GpH7-B3/GpL16-k0 | 78 % of GpH7-B3/GpL16-k0
20 | GpH7-B3 I332R/GpL16-k0 (antibody, human IgG1, B3 variant; copies: 2 + 2) heavy: not shown light: DIVMTQSPLSLPVTPGEPASISCQASESLVHSNRNTYLHWYLQKPGQSPQLLIYKVSNRFSGVPDRFSGSGSGTDFTLKISRVEAEDVGVYYCSQNTHVPPTFGQGTKVEIE | 28 % of GpH7-B3/GpL16-k0 | 95 % of GpH7-B3/GpL16-k0 | 23 % of GpH7-B3/GpL16-k0 | 70 % of GpH7-B3/GpL16-k0
